T1: Recombinant mouse IL-1RAP-his (Sino Biologicals, catalog no. 52657-M08H) (mouse, UniProt Q61730 21-350)
T1 construct: Bought; not shown: His tag of the bought protein
T1 sequence: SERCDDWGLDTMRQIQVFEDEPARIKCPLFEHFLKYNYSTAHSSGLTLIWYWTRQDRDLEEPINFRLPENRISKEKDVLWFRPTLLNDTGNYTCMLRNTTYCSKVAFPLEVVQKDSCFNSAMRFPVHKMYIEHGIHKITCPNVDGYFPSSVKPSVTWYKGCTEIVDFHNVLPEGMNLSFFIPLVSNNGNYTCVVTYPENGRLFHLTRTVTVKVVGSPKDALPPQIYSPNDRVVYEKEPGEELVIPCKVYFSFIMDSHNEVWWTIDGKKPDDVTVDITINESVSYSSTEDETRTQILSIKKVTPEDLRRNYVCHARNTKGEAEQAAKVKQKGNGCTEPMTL

T2: Recombinant cynomolgus monkey IL-1RAP-ECD(S21-E359)-avi-his protein (cynomolgus monkey, UniProt P59822 21-359 (rhesus entry))
T2 construct: also called cyno IL-1RAP-ECD-Avi-His; recombinant cynomolgus monkey IL-1RAP-avi-his protein
T2 sequence: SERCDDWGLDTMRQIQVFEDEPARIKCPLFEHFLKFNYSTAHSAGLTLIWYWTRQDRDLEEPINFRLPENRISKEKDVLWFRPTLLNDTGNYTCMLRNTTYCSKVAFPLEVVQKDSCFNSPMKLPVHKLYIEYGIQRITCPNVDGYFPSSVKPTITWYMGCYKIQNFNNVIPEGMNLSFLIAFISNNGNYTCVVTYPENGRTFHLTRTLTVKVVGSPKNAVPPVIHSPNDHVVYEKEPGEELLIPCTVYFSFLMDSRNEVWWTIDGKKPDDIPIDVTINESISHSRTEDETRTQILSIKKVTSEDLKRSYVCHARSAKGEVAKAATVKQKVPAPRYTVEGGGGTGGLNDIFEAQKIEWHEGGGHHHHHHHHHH

B1: Anti-IL-1RAP-C3-A3 mmIgG2a LALA (antibody, V domains shown)
VH: EVQLLESGGGLVQPGGSLRLSCAASGFIFSHYGMSWVRQAPGKGLEWVSAISYDGEGTLYADSVKGRFTISRDNSKNTLYLQMNSLRAEDTAVYYCARFRYYTAFDYWGQGTLVTVSS
VL: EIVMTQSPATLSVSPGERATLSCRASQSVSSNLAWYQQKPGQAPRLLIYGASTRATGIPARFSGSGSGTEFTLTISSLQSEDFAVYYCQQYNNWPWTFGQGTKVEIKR
notes: also called anti-IL-1RAP-C3-A3 mouse IgG2a LALA
B2: Anti-IL-1RAP-C8-RecC-ES-IgG1LALA (antibody, V domains shown)
VH: QVQLVQSGAEVKKPGSSVKVSCKASGSPAEPYAIQWVRQAPGQGLEWMGYIIPSLGGYDYAQKFQGRVTITADESTSTAYMELSSLRSEDTAVYYCARGQTLYESGRQFDIWGQGTLVTVSS
VL: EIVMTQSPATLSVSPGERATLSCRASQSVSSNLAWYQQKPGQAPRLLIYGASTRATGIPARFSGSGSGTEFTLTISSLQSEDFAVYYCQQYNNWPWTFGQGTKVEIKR
notes: also called ISB 880-C8-recC-ES

Tests used:
[1] = molecular target: T1, Recombinant mouse IL-1RAP-his (Sino …); test: SPR, mouse IgG2a LALA captured on anti-mouse IgG Fc CM5 chip, mouse IL-1RAP-his as analyte in a concentration series, 1:1 fit, one representative replicate
Procedure: (§1) Anti-IL-1RAP-C3-A3 mouse IgG2a LALA was immobilized on a Series S CM5 sensor CHIP coupled with anti-mouse IgG Fc. Mouse IL-1RAP-his was injected over immobilized IgG2a LALA in concentration series in HBS-EP+ buffer. One representative replicate is presented. Plots are showing data expressed as number of resonance units (abbreviated RU; Y axis) vs. time (s, X axis). Dotted lines represent the measured data while solid lines represent simulated fits. KD: equilibrium dissociation constant; Ka: association constant; Kd: dissociation constant.
Surface plasmon resonance (SPR) was used to measure the binding affinities of mouse IgG2a LALA molecules for mouse IL-1RAP. Affinity was measured on a BIACORE™ T200 instrument (BIACORE™ GE […]®) at 25° C. and analyzed with the BIACORE™ T200 Evaluation Software (v3.1). Measurements were performed on Series S CM5 sensor chips (BIACORE™ T200, BIACORE™, GE […]®, catalog no. BR100530) coupled with anti-mouse IgG Fc (BIACORE™, GE […]®, catalog no. BR100838) using a commercial amine coupling kit (BIACORE™, GE […]®, catalog no. BR100050). SPR measurements were performed with commercially available recombinant mouse IL-1RAP-his (Sino Biologicals, catalog no. 52657-M08H). The affinity to mouse IL-1RAP was assessed by immobilizing anti-mouse IL-1RAP mouse IgG2a LALA molecule and using mouse IL-1RAP protein as analyte. Around 150 RU of mouse IgG2a LALA was captured on fc2 of a Series S CM5 sensor chip coupled with anti-mouse IgG Fc. Mouse IL-1RAP-his was injected in multi cycle kinetic at different concentrations ranging from 0.14 to 100 nM, in HBS-EP+ buffer (BIACORE™, GE […]®, catalog no. BR100669) at a flow rate of 30 μl/min for 3 min on fc1 and fc2 (fc1 being used as reference). Dissociation was monitored for 15 min. After each cycle, the surface was regenerated with 60 μl of regeneration solution provided with anti-mouse IgG Fc capture kit (BIACORE™ GE […]®, catalog no. BR100838). Experimental data were processed using the 1:1 Langmuir kinetic fitting model. Measurements included zero-concentration samples for referencing. […]

[2] = molecular target: T2, Recombinant cynomolgus monkey …; test: SPR, IgG1 LALA captured on anti-human IgG Fc CM5 chip, cynomolgus monkey IL-1RAP-avi-his as analyte in a concentration series, 1:1 fit, one representative replicate
Procedure: as §1, with “Anti-IL-1RAP-C8-RecC-ES IgG1” for “Anti-IL-1RAP-C3-A3 mouse IgG2a”, “anti-human” for “anti-mouse”, “Human IL-1RAP-avi-his or cynomolgus monkey IL-1RAP-avi-his” for “Mouse IL-1RAP-his”, “IgG1” for “IgG2a”, “replicate for human IL-1RAP and cynomolgus monkey IL-1RAP” for “replicate”
Surface plasmon resonance (SPR) was used to measure the binding affinities of the human IgG1 LALA molecules for human and cynomolgus monkey IL-1RAP. Affinities were measured on a BIACORE™ T200 instrument (BIACORE™, GE […]®) at 25° C. and analyzed with the BIACORE™ T200 Evaluation Software (v3.1). Measurements were performed on Series S CM5 sensor chips (BIACORE™ T200, BIACORE™, GE […]®, catalog no. BR100530) coupled with anti-human IgG Fc (BIACORE™, GE […]®, catalog no. BR100839) using a commercial amine coupling kit (BIACORE™, GE […]®, catalog no. BR100050). SPR measurements were performed with recombinant human IL-1RAP-avi-his protein produced in house (SEQ ID NO. 1) or recombinant cynomolgus monkey IL-1RAP-avi-his protein produced in house (SEQ ID NO. 2). The affinities to human and cynomolgus monkey IL-1RAP were assessed by immobilizing anti-IL-1RAP IgG1 LALA molecules and using IL-1RAP proteins as analyte. Around 150 RU of human IgG1 LALA were captured on fc2 of a Series S CM5 sensor chip coupled with anti-human IgG Fc. Recombinant human IL-1RAP-avi-his protein or recombinant cynomolgus monkey IL-1RAP-avi-his protein was injected in multi cycle kinetic at different concentrations ranging from 0.14 to 100 nM, in HBS-EP+ buffer (BIACORE™, GE […]®, catalog no. BR100669) at a flow rate of 30 μl/min for 3 min on fc1 and fc2 (fc1 being used as reference). Dissociation was monitored for 12 min.

| Binder | Kd [1] | koff [1] | kon [1] | Kd [2] | koff [2] | kon [2] |
| --- | --- | --- | --- | --- | --- | --- |
| B1 | 0.557 nM | 7.6e-05 s⁻¹ | 137000 M⁻¹ s⁻¹ |  |  |  |
| B2 |  |  |  | 0.307 nM | 0.000196 s⁻¹ | 638000 M⁻¹ s⁻¹ |
